The record followed here is patent US20230212254A1 (published 2023).

For this experiment, the target named is T1, FITC-labeled recombinant human PSMA protein (Acro, #PSA-HF244) (human, UniProt Q04609 44-750, FITC label).
T1 construct: Bought reagent
Briefly: flow cytometry, gating of CAR(+) cells for T cell subset analysis (FIG. 79). The protocol: Eight days after the start of stimulation, the CAR-T cells constructed in Example 8 were analyzed for T cell subsets using a flow cytometer: they were classified into stem cell-like memory T cells (T memory stem cells, CD45RA⁺CCR7⁺), central memory T cells (CD45RA⁻CCR7⁺), effector memory T cells (CD45RA⁻ CCR7⁻) and effector T cells (CD45RA⁺CCR7⁻) according to the presence or absence of the expression of CD45RA and CCR7. […] In addition, when analyzing PSMA-specific CAR(+) cells, FITC-labeled recombinant human PSMA protein (Acro, #PSA-HF244) was used to stain the CAR.
(In general: In flow cytometry, cells or beads pass a laser one at a time.)

T1 sequence (Q04609 44-750 limits assumed): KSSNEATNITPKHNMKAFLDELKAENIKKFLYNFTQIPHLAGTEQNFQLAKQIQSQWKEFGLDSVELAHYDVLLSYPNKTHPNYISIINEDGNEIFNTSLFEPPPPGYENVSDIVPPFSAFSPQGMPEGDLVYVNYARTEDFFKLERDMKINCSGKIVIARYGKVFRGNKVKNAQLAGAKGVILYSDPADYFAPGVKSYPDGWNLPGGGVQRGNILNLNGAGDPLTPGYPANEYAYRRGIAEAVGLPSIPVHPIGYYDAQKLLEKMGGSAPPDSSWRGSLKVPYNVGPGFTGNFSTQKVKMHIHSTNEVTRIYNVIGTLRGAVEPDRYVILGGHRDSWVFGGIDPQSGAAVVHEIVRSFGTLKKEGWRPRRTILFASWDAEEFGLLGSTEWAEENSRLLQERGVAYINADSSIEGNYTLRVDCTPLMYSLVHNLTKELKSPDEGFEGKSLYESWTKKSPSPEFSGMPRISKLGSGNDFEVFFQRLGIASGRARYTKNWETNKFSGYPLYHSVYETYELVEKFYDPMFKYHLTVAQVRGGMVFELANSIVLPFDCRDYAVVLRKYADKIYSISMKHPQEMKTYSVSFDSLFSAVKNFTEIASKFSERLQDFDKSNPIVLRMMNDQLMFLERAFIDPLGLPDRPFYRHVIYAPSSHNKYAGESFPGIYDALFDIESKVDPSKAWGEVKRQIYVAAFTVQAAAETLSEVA

B1: PSMA-specific CAR (Pbbz): scFv derived from the PSMA-specific J591 antibody, CD8 hinge-transmembrane domain, 4-1BB co-stimulatory domain, CD3ζ intracellular … (other)
chain: DIVMTQSHKFMSTSVGDRVSIICKASQDVGTAVDWYQQKPGQSPKLLIYWASTRHTGVPDRFTGSGSGTDFTLTITNVQSEDLADYFCQQYNSYPLTFGAGTMLDLKRGGGGSGGGGSGGGGSEVQLQQSGPELKKPGTSVRISCKTSGYTFTEYTIHWVKQSHGKSLEWIGNINPNNGGTTYNQKFEDKATLTVDKSSSTAYMELRSLTSEDSAVYYCAAGWNFDYWGQGTTLTVSSTTTPAPRPPTPAPTIASQPLSLRPEACRPAAGGAVHTRGLDFACDIYIWAPLAGTCGVLLLSLVITLYCKRGRKKLLYIFKQPFMRPVQTTQEEDGCSCRFPEEEEGGCELRVKFSRSADAPAYQQGQNQLYNELNLGRREEYDVLDKRRGRDPEMGGKPRRKNPQEGLYNELQKDKMAEAYSEIGMKGERRRGKGHDGLYQGLSTATKDTYDALHMQALPPR
notes: The Pbbz#F, #C, #S2 and #FCS2 cells are treated as carrying the same CAR
For B1, the binding result is on record as “binds”.
